Measured values as given in the DeepSol protein solubility set.

Assay: soluble on expression in E. coli; label from the status in PepcDB or PDB records

Sequence | soluble on expression in E. coli
MFQLSVQDIHPGQQAGNKEEAIRQVAAALVSAGNVADGYVNGMLAREQQTSTFLGNGIAIPHGTTDTRDQVLKTGVQVFQFPQGVTWGEGQTAYVAIGIAASSDEHLGLLRQLTHVLSDDAVAAQLQSATTAEELRALLMGEKQSEALKLDNETLSLDVAASDLLTLQALNAARLKEVGAVDAAFVSHVINDTPLNLGQGVWLNDSAEGNLRSAVAVSRAANAFTRDEQPVSLLVTVAMADEQPTAVLNRLSKLLLDKKAEHLLKADAATVLALLTSDDAIAEDVLSAEFVVRNEHGLHARPGTMLVNTIKQFSSDITVTNLDGSGKPANGRSLMKVVALGVKKGHRLRFTAQGEDAQQALDAIGEAIAAGLGEGA | not soluble
MWERSLRDTMRGRTSTLKVAILCFEKDRPKLEALKEILGRSYEVEFVDYSKDVWDDVLQYDCIVAYLASGIVVRGICGRLRGKWKDPAVIVLDKPLKHAVVMLGGHHGGNEVAKKLEEAGLKAVITTAMEFTEGYSVGVGFRKNATADEILEAIAMALEEVGGRMEEIRVISTVDAKRDSAIVEVANRLKRPLIFVRAEEINSMDIRETKAVKIGVKNVAEACAIYASNSGELILPKRVYGGVTVAIAW | not soluble
MEEELPLFSGDSGKPVQATLSSLKMLDVGKWPIFSLCSEEELQLIRQACVFGSAGNEVLYTTVNDEIFVLGTNCCGCLGLGDVQSTIEPRRLDSLNGKKIACLSYGSGPHIVLATTEGEVFTWGHNAYSQLGNGTTNHGLVPCHISTNLSNKQVIEVACGSYHSLVLTSDGEVFAWGYNNSGQVGSGSTVNQPIPRRVTGCLQNKVVVTIACGQMCCMAVVDTGEVYVWGYNGNGQLGLGNSGNQPTPCRVAALQGIRVQRVACGYAHTLVLTDEGQVYAWGANSYGQLGTGNKSNQSYPTPVTVEKDRIIEIAACHSTHTSAAKTQGGHVYMWGQCRGQSVILPHLTHFSCTDDVFACFATPAVTWRLLSVEPDDHLTVAESLKREFDNPDTADLKFLVDGKYIYAHKVLLKIRCEHFRSSLEDNEDDIVEMSEFSYPVYRAFLEYLYTDSISLSPEEAVGLLDLATFYRENRLKKLCQQTIKQGICEENAIALLSAAVKYDAQDLEEFCFRFCINHLTVVTQTSGFAEMDHDLLKNFISKASRVGAFKN | not soluble
MLTPISIEKEHIRLINLLHFINEQNRWFTIKELSDYLQVADKTVRKYLKLLEDEIPPSWNLLVQKGKGIYLKKPLNESLSFVESKILRKSLNLQICEELVFKKNSMQSLAQKLHLQVGALYPIINQINYDIQSSHLNIKKKPLEISGREQDVRVFMLRLYCNIPNDYWPFPYINKQNITDLINKMEKILNVQMYTYSKHKLCVLFAITISRLLSGNTIDNVSGLILVNKNDDHYKTVASITSELQNSFGVTLHETEISFLALALLLSLGNSITTDSNKTLTSYKKTIMPLAKEITKGIEHKLQLGINYDESFLTYVVLIIKKALDKNFIQYYNYNIKFIRHIKQRHPNTFNTIQECISNLNYTVYSHFDCYEISLLTMHFETQRMLFKNNPKKIYVYTSQGCIHREYISALLEKRYNGLIKIVRNTIINLTNESLQDMEIDIIISNVNLPIKNIPIVQISEFPTERDFHEIKKII | not soluble
MIIDGHTHVILPVEKHIKIMDEAGVDKTILFSTSIHPETAVNLRDVKKEMKKLNDVVNGKTNSMIDVRRNSIKELTNVIQAYPSRYVGFGNVPVGLSENDTNSYIEENIVNNKLVGIGELTPASGQIKSLKPIFKYSMDSGSLPIWIHAFNPLVLQDIKEIAELCKAFPKVPVILGHMGGSNWMTAVELAKEIQNLYLDTSAYFSTFVLKIVINELPLKCIFGTDMPFGDLQLSIEAIKKMSNDSYVANAVLGDNISRLLNIMAGDPLEHHHHHH | not soluble
GSGEAKPQAPELRIFPKKMDAELGQKVDLVCEVLGSVSQGCSWLFQNSSSKLPQPTFVVYMASSHNKITWDEKLNSSKLFSAMRDTNNKYVLTLNKFSKENEGYYFCSVISNSVMYFSSVVPVLQKVNSTTTKPVLRTPSPVHPTGTSQPQRPEDCRPRGSVKGTG | soluble
MGRLDGKVIILTAAAQGIGQAAALAFAREGAKVIATDINESKLQELEKYPGIQTRVLDVTKKKQIDQFANEVERLDVLFNVAGFVHHGTVLDCEEKDWDFSMNLNVRSMYLMIKAFLPKMLAQKSGNIINMSSVASSVKGVVNRCVYSTTKAAVIGLTKSVAADFIQQGIRCNCVCPGTVDTPSLQERIQARGNPEEARNDFLKRQKTGRFATAEEIAMLCVYLASDESAYVTGNPVIIDGGWSLG | soluble
